Where a chain is given by its changes, count along the chain named. In names and notes the source's numbering stands.

The values that follow come from patent publication US20230235013A1 (MABSOLVE, published 2023).

This assay concerns the target T1, Histidine-tagged recombinant human FcγRI (CD64) (human, UniProt P12314 16-288).
T1 construct: bought; also called Sino Biological Cat. No. 12056-H08H
Nature of the assay: SPR, culture supernatant, captured His-FcγRI. (In general: Surface plasmon resonance follows binding to a sensor surface in real time, without labels.)
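Note: biacore T200 SPR at 25 °C, anti-His capture, supernatants of HEK293 cells expressing IgG1 Fc variants injected 1 min, reference-subtracted response read 55 s after injection start.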

Description: Binding analysis was carried out by surface plasmon resonance at 25° C. using a Biacore® T200 instrument with Biacore® T200 control software. The running buffer (HBS-EP+) consisted of 0.01 M HEPES pH 7.4, containing 0.15 M NaCl, 3 mM EDTA, and 0.05% v/v Surfactant P20. The sample compartment was held at 4° C. during analysis.
The cell was activated by treatment with EDC/NHS for 7 min. The antibody was diluted to 5 μg/mL in 10 mM sodium acetate pH 4.5 and injected for 7 min at 5 μL/min. The flow cell was deactivated by injection of 1M ethanolamine for 7 min. This process was repeated in the absence of anti-his antibody on a separate flow cell to generate a reference surface. […] Samples of undiluted culture supernatants from HEK293 cells expressing human IgG1 antibodies comprising variant Fc regions were injected for 1 min at 30 μL/min and allowed to disassociate for 2 min. […] Therefore, regeneration between cycles was not necessary. Responses on the test flow cell (coupled with anti-His antibody) were analysed after subtraction of responses on the control flow cell (sham-coupled). The relative binding response was measured 55 sec after the beginning of sample injection. To account for any possible drift in response due to slow dissociation of the His-tagged FcγRI, the binding response was measured relative to a baseline interpolated between report points located before sample injection and at the end of dissociation.
The whole experiment was repeated three times. Due to the relatively crude nature of the samples (variable refractive index, presence of culture media and other cellular products), some sensorgrams were unsatisfactory and were eliminated from analysis. The mean and standard deviation of binding response was then calculated for each sample.

B1: anti-CD20 human IgG1 L234E/L235K/G236R (antibody)
heavy: QVQLQQPGAELVKPGASVKMSCKASGYTFTSYNMHWVKQTPGRGLEWIGAIYPGNGDTSYNQKFKGKATLTADKSSSTAYMQLSSLTSEDSAVYYCARSTYYGGDWYFNVWGAGTTVTVSSASTKGPSVFPLAPSSKSTSGGTAALGCLVKDYFPEPVTVSWNSGALTSGVHTFPAVLQSSGLYSLSSVVTVPSSSLGTQTYICNVNHKPSNTKVDKKVEPKSCDKTHTCPPCPAPEEKRGPSVFLFPPKPKDTLMISRTPEVTCVVVDVSHEDPEVKFNWYVDGVEVHNAKTKPREEQYNSTYRVVSVLTVLHQDWLNGKEYKCKVSNKALPAPIEKTISKAKGQPREPQVYTLPPSRDELTKNQVSLTCLVKGFYPSDIAVEWESNGQPENNYKTTPPVLDSDGSFFLYSKLTVDKSRWQQGNVFSCSVMHEALHNHYTQKSLSLSPGK
light: QIVLSQSPAILSASPGEKVTMTCRASSSVSYIHWFQQKPGSSPKPWIYATSNLASGVPVRFSGSGSGTSYSLTISRVEAEDAATYYCQQWTSNPPTFGGGTKLEIKRTVAAPSVFIFPPSDEQLKSGTASVVCLLNNFYPREAKVQWKVDNALQSGNSQESVTEQDSKDSTYSLSSTLTLSKADYEKHKVYACEVTHQGLSSPVTKSFNRGEC
notes: also called 1-38; copies: 2 + 2
With B1, the Mean binding response amounted to 34.1 RU.

B2: anti-CD20 human IgG1 L234E/L235S/G236R (antibody)
heavy: B1 heavy with K239S
light: B1 light
notes: also called 1-44; copies: 2 + 2
Consider B2, for which the Mean binding response came out at 39.2 RU.

B3: anti-CD20 human IgG1 L234H/L235G/G236R (antibody)
heavy: B1 heavy with E238H, K239G
light: B1 light
notes: also called 1-65; copies: 2 + 2
Turning to B3, the Mean binding response came to 31.6 RU.

B4: anti-CD20 human IgG1 L234H/L235V/G236R (antibody)
heavy: B1 heavy with E238H, K239V
light: B1 light
notes: also called 1-76; copies: 2 + 2
Turning to B4, the Mean binding response amounted to 25.6 RU.

B5: anti-CD20 human IgG1 L234E/L235V/G236R (antibody)
heavy: B1 heavy with K239V
light: B1 light
notes: also called 1-46; 2-16; copies: 2 + 2
Consider B5, for which the Mean binding response amounted to 18.4 RU.

B6: anti-CD20 human IgG1 L234G/L235D/G236R (antibody)
heavy: B1 heavy with E238G, K239D
light: B1 light
notes: also called 1-48; copies: 2 + 2
On to B6, for which the Mean binding response was 23.6 RU.

B7: anti-CD20 human IgG1 L234E/L235Q/G236R (antibody)
heavy: B1 heavy with K239Q
light: B1 light
notes: also called 1-42; copies: 2 + 2
Take B7: the Mean binding response is 33.7 RU.

B8: anti-CD20 human IgG1 L234G/L235T/G236R (antibody)
heavy: B1 heavy with E238G, K239T
light: B1 light
notes: also called 1-60; copies: 2 + 2
Consider B8, for which the Mean binding response amounted to 26.5 RU.

B9: anti-CD20 human IgG1 L234H/L235K/G236R (antibody)
heavy: B1 heavy with E238H
light: B1 light
notes: also called 1-68; copies: 2 + 2
Regarding B9, the Mean binding response amounted to 29.2 RU.

B10: anti-CD20 human IgG1 L234G/L235I/G236R (antibody)
heavy: B1 heavy with E238G, K239I
light: B1 light
notes: also called 1-52; copies: 2 + 2
On to B10, for which the Mean binding response came out at 29.2 RU.

B11: anti-CD20 human IgG1 L234H/L235E/G236R (antibody)
heavy: B1 heavy with E238H, K239E
light: B1 light
notes: also called 1-64; copies: 2 + 2
On to B11, for which the Mean binding response worked out at 22.8 RU.

B12: anti-CD20 human IgG1 L234G/L235Q/G236R (antibody)
heavy: B1 heavy with E238G, K239Q
light: B1 light
notes: also called 1-57; 2-18; copies: 2 + 2
B12: the Mean binding response came out at 13.6 RU.

B13: anti-CD20 human IgG1 L234G/L235G/G236R (antibody)
heavy: B1 heavy with E238G, K239G
light: B1 light
notes: also called 1-50; copies: 2 + 2
On to B13, for which the Mean binding response was determined as 29.5 RU.

B14: anti-CD20 human IgG1 L234H/L235D/G236R (antibody)
heavy: B1 heavy with E238H, K239D
light: B1 light
notes: also called 1-63; copies: 2 + 2
On to B14, for which the Mean binding response is 38.5 RU.

B15: anti-CD20 human IgG1 L234G/L235R/G236R (antibody)
heavy: B1 heavy with E238G, K239R
light: B1 light
notes: also called 1-58; copies: 2 + 2
For the molecule B15, the Mean binding response came out at 29.3 RU.

B16: anti-CD20 human IgG1 L234K/G236R (antibody)
heavy: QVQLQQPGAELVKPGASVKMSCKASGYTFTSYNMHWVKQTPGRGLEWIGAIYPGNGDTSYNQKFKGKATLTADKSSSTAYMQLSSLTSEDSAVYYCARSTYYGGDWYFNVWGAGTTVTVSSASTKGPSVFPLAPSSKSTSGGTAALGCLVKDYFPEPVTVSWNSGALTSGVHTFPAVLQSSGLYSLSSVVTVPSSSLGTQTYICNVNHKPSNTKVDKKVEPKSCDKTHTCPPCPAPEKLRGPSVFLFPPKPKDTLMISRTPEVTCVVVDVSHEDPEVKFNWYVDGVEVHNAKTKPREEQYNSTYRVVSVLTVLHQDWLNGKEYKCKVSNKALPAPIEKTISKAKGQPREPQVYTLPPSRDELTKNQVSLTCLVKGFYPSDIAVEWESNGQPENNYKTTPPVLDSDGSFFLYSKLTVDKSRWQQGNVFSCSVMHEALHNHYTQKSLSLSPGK
light: B1 light
notes: also called 1-84; copies: 2 + 2
B16: the Mean binding response is 31.2 RU.

B17: anti-CD20 human IgG1 L234G/L235E/G236R (antibody)
heavy: B1 heavy with E238G, K239E
light: B1 light
notes: also called 1-49; copies: 2 + 2
Regarding B17, the Mean binding response was found to be 31.8 RU.

B18: anti-CD20 human IgG1 L234H/L235R/G236R (antibody)
heavy: B1 heavy with E238H, K239R
light: B1 light
notes: also called 1-73; copies: 2 + 2
With B18, the Mean binding response was 35.3 RU.

B19: anti-CD20 human IgG1 L234H/L235Q/G236R (antibody)
heavy: B1 heavy with E238H, K239Q
light: B1 light
notes: also called 1-72; copies: 2 + 2
As to B19, the Mean binding response came out at 33.3 RU.

B20: anti-CD20 human IgG1 L234H/L235T/G236R (antibody)
heavy: B1 heavy with E238H, K239T
light: B1 light
notes: also called 1-75; copies: 2 + 2
With B20, the Mean binding response was determined as 44.9 RU.

B21: anti-CD20 human IgG1 L234H/L235M/G236R (antibody)
heavy: B1 heavy with E238H, K239M
light: B1 light
notes: also called 1-70; copies: 2 + 2
In the case of B21, the Mean binding response came out at 31.3 RU.

B22: anti-CD20 human IgG1 L234K/L235A/G236R (antibody)
heavy: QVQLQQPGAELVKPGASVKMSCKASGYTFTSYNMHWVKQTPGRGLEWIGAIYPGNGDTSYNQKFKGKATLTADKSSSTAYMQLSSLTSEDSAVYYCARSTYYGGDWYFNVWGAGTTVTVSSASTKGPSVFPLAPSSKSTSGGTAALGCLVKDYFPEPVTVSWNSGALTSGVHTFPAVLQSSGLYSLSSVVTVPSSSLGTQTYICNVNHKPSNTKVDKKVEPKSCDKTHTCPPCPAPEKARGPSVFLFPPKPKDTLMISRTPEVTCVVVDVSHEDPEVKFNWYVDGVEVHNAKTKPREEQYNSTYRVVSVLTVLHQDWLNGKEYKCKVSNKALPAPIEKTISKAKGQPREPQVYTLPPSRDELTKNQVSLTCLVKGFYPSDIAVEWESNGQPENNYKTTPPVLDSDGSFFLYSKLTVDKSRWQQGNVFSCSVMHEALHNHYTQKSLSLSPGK
light: B1 light
notes: also called 1-77; copies: 2 + 2
Regarding B22, the Mean binding response was 23 RU.

B23: anti-CD20 human IgG1 L234G/L235A/G236R (antibody)
heavy: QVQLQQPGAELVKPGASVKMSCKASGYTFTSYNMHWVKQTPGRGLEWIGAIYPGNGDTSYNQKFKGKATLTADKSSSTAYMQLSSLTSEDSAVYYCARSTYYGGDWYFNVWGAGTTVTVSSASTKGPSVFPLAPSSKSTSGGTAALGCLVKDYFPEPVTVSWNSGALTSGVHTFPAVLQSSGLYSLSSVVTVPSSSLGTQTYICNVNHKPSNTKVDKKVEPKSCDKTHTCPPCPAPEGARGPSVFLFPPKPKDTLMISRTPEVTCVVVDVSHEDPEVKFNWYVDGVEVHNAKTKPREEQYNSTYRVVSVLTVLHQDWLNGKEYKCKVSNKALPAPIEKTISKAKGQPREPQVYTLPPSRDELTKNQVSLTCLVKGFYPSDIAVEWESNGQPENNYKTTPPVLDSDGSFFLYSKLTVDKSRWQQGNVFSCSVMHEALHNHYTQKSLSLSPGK
light: B1 light
notes: also called 1-47; copies: 2 + 2
As to B23, the Mean binding response turned out to be 23 RU.

B24: anti-CD20 human IgG1 L234E/L235T/G236R (antibody)
heavy: B1 heavy with K239T
light: B1 light
notes: also called 1-45; copies: 2 + 2
As for B24, the Mean binding response came to 29.6 RU.

B25: anti-CD20 human IgG1 L234E/L235R/G236R (antibody)
heavy: B1 heavy with K239R
light: B1 light
notes: also called 1-43; copies: 2 + 2
B25: the Mean binding response was determined as 26.7 RU.

B26: anti-CD20 human IgG1 L234H/L235H/G236R (antibody)
heavy: B1 heavy with E238H, K239H
light: B1 light
notes: also called 1-66; copies: 2 + 2
Regarding B26, the Mean binding response amounted to 36.3 RU.

B27: anti-CD20 human IgG1 L234H/L235S/G236R (antibody)
heavy: B1 heavy with E238H, K239S
light: B1 light
notes: also called 1-74; 2-21; copies: 2 + 2
With B27, the Mean binding response came out at 10.9 RU.

B28: anti-CD20 human IgG1 L234H/L235A/G236R (antibody)
heavy: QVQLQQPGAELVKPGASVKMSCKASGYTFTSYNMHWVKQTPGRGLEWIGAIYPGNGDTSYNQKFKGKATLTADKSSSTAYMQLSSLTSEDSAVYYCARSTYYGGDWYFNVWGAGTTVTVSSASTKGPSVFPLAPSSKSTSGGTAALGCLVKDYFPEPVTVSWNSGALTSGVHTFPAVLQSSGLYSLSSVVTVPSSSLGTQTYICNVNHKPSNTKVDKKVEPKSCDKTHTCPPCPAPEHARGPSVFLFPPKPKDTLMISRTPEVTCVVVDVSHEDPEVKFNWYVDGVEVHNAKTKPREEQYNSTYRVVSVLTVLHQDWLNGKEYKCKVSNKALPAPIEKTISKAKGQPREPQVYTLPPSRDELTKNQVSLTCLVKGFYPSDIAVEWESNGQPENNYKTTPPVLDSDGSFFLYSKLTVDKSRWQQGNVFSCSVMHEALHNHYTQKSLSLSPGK
light: B1 light
notes: also called 1-62; copies: 2 + 2
On to B28, for which the Mean binding response was 29.4 RU.

B29: anti-CD20 human IgG1 L234G/L235M/G236R (antibody)
heavy: B1 heavy with E238G, K239M
light: B1 light
notes: also called 1-55; copies: 2 + 2
Turning to B29, the Mean binding response came to 23.2 RU.

B30: anti-CD20 human IgG1 L234G/L235H/G236R (antibody)
heavy: B1 heavy with E238G, K239H
light: B1 light
notes: also called 1-51; 2-17; copies: 2 + 2
On to B30, for which the Mean binding response is 19 RU.

B31: anti-CD20 human IgG1 L234G/L235K/G236R (antibody)
heavy: B1 heavy with E238G
light: B1 light
notes: also called 1-53; copies: 2 + 2
For the molecule B31, the Mean binding response amounted to 27.4 RU.

B32: anti-CD20 human IgG1 L234G/G236R (antibody)
heavy: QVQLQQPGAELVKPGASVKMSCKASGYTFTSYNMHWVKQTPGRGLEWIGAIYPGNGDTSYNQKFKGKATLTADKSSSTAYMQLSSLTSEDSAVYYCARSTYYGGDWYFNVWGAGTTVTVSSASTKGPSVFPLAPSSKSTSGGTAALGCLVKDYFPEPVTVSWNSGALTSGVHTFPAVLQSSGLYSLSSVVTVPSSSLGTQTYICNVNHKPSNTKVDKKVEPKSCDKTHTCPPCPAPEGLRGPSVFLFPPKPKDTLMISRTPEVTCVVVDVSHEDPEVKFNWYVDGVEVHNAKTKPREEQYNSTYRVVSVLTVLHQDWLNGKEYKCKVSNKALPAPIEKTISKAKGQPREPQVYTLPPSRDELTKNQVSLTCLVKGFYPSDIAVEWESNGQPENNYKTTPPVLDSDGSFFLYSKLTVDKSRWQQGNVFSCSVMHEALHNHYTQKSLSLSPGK
light: B1 light
notes: also called 1-54; 2-85; copies: 2 + 2
As to B32, the Mean binding response was found to be 28.5 RU.

B33: anti-CD20 human IgG1 L234G/L235N/G236R (antibody)
heavy: B1 heavy with E238G, K239N
light: B1 light
notes: also called 1-56; copies: 2 + 2
For the molecule B33, the Mean binding response turned out to be 26.8 RU.

B34: anti-CD20 human IgG1 L234H/L235N/G236R (antibody)
heavy: B1 heavy with E238H, K239N
light: B1 light
notes: also called 1-71; copies: 2 + 2
B34: the Mean binding response is 24.6 RU.
